Source: patent publication US20250115663A1 (CELLDEX THERAPEUTICS, published 2025)

T1: kappa-sCD40(1-94)-Flag mutant fragment D (multiple mutations of residues 33-36) (human, UniProt P25942 21-114)
T1 construct: The text says only multiple mutations of residues 33-36 (human to mouse differences); that mutant D carries exactly these is inferred; also called D (33-36); not shown: N-terminal human kappa light chain; C-terminal Flag tag
T1 chain: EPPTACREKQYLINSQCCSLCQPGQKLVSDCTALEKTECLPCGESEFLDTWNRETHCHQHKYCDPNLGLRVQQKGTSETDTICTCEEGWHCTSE


Legend:
[1] = molecular target: T2, kappa-sCD40-Flag fusion protein, fragment amino acids 36-130 (human, UniProt P25942 56-150); assay: ELISA, kappa-sCD40-Flag fragment captured on anti-Flag
T2 construct: not shown: N-terminal human kappa light chain; C-terminal Flag tag
Method: (§1) 1 μg/ml of purified kappa-sCD40-Flag fusion proteins or CHO cell supernatants containing the sCD40 fusion proteins were captured to microtiter plates that were pre-coated with 5 μg/ml mouse anti-Flag antibody (Sigma) in PBS and blocked with 5% bovine serum albumin in PBS. Following incubation with the CD40 antibody, the microplates were washed with PBS/Tween, and incubated with a goat anti-human IgG Fc polyclonal reagent conjugated to horseradish peroxidase. After washing, the plates were developed with HRP substrate, and analyzed at OD 450-650 using a microtiter plate reader. An ELISA with a goat anti-human IgG Fab2-HRP to measure kappa chain binding was carried out in parallel to validate the sCD40 fusion protein expression from different transfections.

[2] = molecular target: T3, kappa-sCD40-Flag fusion protein, fragment amino acids 84-173 (human, UniProt P25942 104-193); assay: as above
T3 construct: not shown: N-terminal human kappa light chain; C-terminal Flag tag
Method: as §1

[3] = molecular target: T4, soluble human CD40-MsIgG2a (human, UniProt P25942); assay: BLI (Octet QKe), antibody captured on anti-human Fc (AHC) biosensors, analyte soluble human CD40-MsIgG2a 3.13 to 0.098 nM, 25 C, 1:1 fit
T4 construct: soluble, fused to mouse IgG2a; also called recombinant human CD40-msG2a chimeric protein; CD40-MsIgG2a (Celldex, 60 kD by SDS-PAGE)
Method: Purified antibodies from Example 1 were captured on Anti-Human Fc Capture (AHC) biosensors (Fortebio Product No. 18-5060). Each antibody was prepared in dilution buffer (10mMPO4+150 mM NaCl+1 mg/mL BSA+0.5% Tween 20, pH 7.2) to 0.5 μg/mL and loaded on freshly hydrated AHC biosensors for 35-50 sec at 25° C. and 1000 rpm plate shake speed to achieve a target response of 0.2 nm. Low levels of ligand were captured to limit any effects of mass transport of analyte on kinetic parameters. For one assay, eight biosensors were loaded with the same antibody.
Binding was determined by exposing six of the antibody loaded biosensors to analyte: soluble human CD40-MsIgG2a (Celldex, 60 kD by SDS-PAGE). Affinity measurements were determined using 2-fold serial dilutions of analyte ranging from 3.13 to 0.098 nM in dilution buffer at 25° C. and 1000 rpm plate shake speed. Association of the antibody loaded biosensors in analyte wells was carried out for 1200 seconds, the biosensors were then moved to dilution buffer wells for 2.5 hrs (9000 sec) for dissociation measurements.
Fortebio's Data Analysis Software version 8.2.0.7 (Pall ForteBio, Menlo Park, CA) was used in each case to derive kinetic parameters from the concentration series of analyte in dilution buffer binding to captured antibody. The association and dissociation curves were fitted to a 1:1 binding model using the data analysis software according to the manufacturer's guidelines.

[4] = molecular target: T5, recombinant human CD40-Fc (human, UniProt P25942 21-193); assay: ELISA on coated recombinant human CD40-Fc, detection anti-human IgG F(ab')2-HRP, OD 450-650
T5 construct: also called soluble recombinant human CD40/Fc chimera from R&D Systems; not shown: The antibody Fc domain of the R&D Systems chimera and any linker to it
Method: Microtiter plates were coated with recombinant human CD40-Fc in PBS, and then blocked with 5% bovine serum albumin in PBS. […] The plates were washed with PBS/Tween and then incubated with a goat-anti-human IgG F(ab′)2-specific polyclonal reagent conjugated to horseradish peroxidase at 37° C. After washing, the plates were developed with HRP substrate, and analyzed at OD 450-650 using a microtiter plate reader.

[5] = molecular target: T1, kappa-sCD40(1-94)-Flag mutant fragment …; assay: ELISA, kappa-sCD40-Flag fusion captured on anti-Flag, anti-human IgG Fc-HRP
Method: as §1

[6] = molecular target: T6, kappa-sCD40(1-94)-Flag mutant fragment B (multiple mutations of residues 13-15); assay: as above
T6 construct: also called B (13-15)
Method: as §1

[7] = molecular target: T7, kappa-sCD40(1-94)-Flag mutant fragment A (multiple mutations of residues 1-5) (human, UniProt P25942 26-114); assay: as above
T7 construct: The text says only multiple mutations of residues 1-5 (human to mouse differences); that mutant A carries exactly these is inferred; also called A (1-5); not shown: N-terminal human kappa light chain; C-terminal Flag tag
Method: as §1

[8] = molecular target: T8, kappa-sCD40(1-94)-Flag mutant fragment C (multiple mutations of residues 25, 26, 28 and 30); assay: as above
T8 construct: also called C (25, 26, 28, 30)
Method: as §1

[9] = molecular target: T9, kappa-sCD40-Flag fusion protein, full length ECD amino acid residues 1-173 (human, UniProt P25942 21-193); assay: ELISA, kappa-sCD40-Flag fusion (~1 ug/ml) captured on anti-Flag, anti-human IgG Fc-HRP
T9 construct: also called full length sCD40; not shown: N-terminal human kappa light chain; C-terminal Flag tag
Method: as §1

[10] = molecular target: T10, kappa-sCD40-Flag fusion protein, fragment amino acids 1-94 (human, UniProt P25942 21-114); assay: as above
T10 construct: also called sCD40aa 1-94; not shown: N-terminal human kappa light chain; C-terminal Flag tag
Method: as §1

[11] = molecular target: T2, kappa-sCD40-Flag fusion protein, …; assay: as above
Method: as §1

[12] = molecular target: T3, kappa-sCD40-Flag fusion protein, …; assay: as above
Method: as §1

T5 sequence (P25942 21-193 limits assumed, form in doubt): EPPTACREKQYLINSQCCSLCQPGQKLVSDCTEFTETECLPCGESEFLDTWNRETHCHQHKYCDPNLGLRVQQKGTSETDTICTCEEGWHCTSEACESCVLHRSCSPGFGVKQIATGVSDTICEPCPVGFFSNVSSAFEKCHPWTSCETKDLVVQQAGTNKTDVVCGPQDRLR
T3 sequence (P25942 104-193): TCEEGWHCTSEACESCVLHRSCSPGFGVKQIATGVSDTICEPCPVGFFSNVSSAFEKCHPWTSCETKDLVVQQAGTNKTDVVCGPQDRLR
T2 sequence (P25942 56-150): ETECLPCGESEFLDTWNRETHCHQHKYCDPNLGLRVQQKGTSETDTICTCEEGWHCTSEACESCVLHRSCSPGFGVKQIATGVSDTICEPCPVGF
T9 sequence (P25942 21-193): as the sequence (P25942 21-193 limits assumed, form in doubt) above

binding result [1] | binding result [2] | Kd [3] [nM] | kon [3] [M⁻¹ s⁻¹] | EC50 (read off the curve) [4] [nM] | Average OD [5] [OD 450-650] | Average OD [6] [OD 450-650] | Average OD [7] [OD 450-650] | Average OD [8] [OD 450-650] | Average OD [9] [OD 450-650] | Average OD [10] [OD 450-650] | Average OD [11] [OD 450-650] | Average OD [12] [OD 450-650] | Binder
no binding (tested: ~1 ug/ml fragment) | no binding (tested: ~1 ug/ml fragment) | 0.0107 | 813000 | ~0.4 | 0.092 | 2.03 | 0.189 | 1.49 | 1.26 | 1.8 | 0.024 | 0.024 | anti-CD40 human monoclonal antibody 3C3 (antibody, human IgG2, kappa, V domains shown, Human IgG2, C-terminal lysine removed; also called anti-CD40 mAb 3C3; CD40 antibody 3C3) VH: QVQLVESGGGVVQPGRSLRLSCAGSGFIFSRYGMYWVRQAPGKGLEWVAVIWYDGSYKYYADSVKGRFTISRDNSKNTLYLQMNSLRAEDTAVYYCARESPWYYFDYWGQGTLVTVSS VL: DIQMTQSPSSLSASVGDRVTITCRASQGISNYLAWYQQKPGKVPKLLIYAASTLQSGVPSRFSGSGSGTDFTLTISSLQPEDVATYYCQKYKSAPFTFGPGTKVDIKR
– | – | 0.0033 | – | ~0.4 | – | – | – | – | – | – | – | – | anti-CD40 human monoclonal antibody 3G5 (antibody, human IgG2, V domains shown, Human IgG2) VH: QVQLVESGGGVVQPGKSLRLSCAASGFTFSSNGIHWVRQAPGKGLEWVAVIWSDGSNKFYADSVKGRFTISRDNSKNTLYLQMNSLRAEDTAVYYCARASGSGSYYNFFDYWGQGTLVTVSS VL: EIVMTQSPATLSVSPGERATLSCRASQSVRSNLAWYQQKPGQAPRLLIYGASTRATGIPARFSGSGSGTEFTLTINSLQSEDFAVYYCQQHNKWITFGQGTRLEIK
